Data from patent publication US20040214235A1 (KIRIN BEER, published 2004).
Values belong to the binder of their own block, whether it stands above or below them.

Columns and labels:
[1] = molecular target: T1, TRAIL-R1-hFc, fusion protein of the extracellular region of human TRAIL-R1 and the Fc region of human IgG1 (human, UniProt O00220 24-239); test: ELISA, TRAIL-R1-hFc coated plate, hybridoma culture supernatant
T1 construct: extracellular domain; Bought (ALEXIS); not shown: Fc region of human IgG1
T1 sequence (looked up): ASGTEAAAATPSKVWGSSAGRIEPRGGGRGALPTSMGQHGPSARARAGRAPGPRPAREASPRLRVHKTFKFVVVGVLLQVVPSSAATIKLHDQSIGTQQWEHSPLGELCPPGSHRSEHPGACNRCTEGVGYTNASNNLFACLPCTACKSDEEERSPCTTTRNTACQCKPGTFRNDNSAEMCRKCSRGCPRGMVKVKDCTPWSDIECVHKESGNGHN

[2] = molecular target: T2, human TRAIL-R2 on the surface of cells (Colo205, U251, Jurkat, normal human hepatocytes) (human, UniProt O14763 56-440); test: cell-based or functional assay
[3] = molecular target: T1, TRAIL-R1-hFc, fusion protein of the …; test: ELISA, TRAIL-R1-hFc coated plate, purified antibody
[4] = molecular target: T2, human TRAIL-R2 on the surface of cells …; test: cell-based or functional assay; remark: listed apart in the source
[5] = molecular target: T3, TRAIL-R2-hFc, fusion protein of the extracellular region of human TRAIL-R2 and the Fc region of human IgG1 (human, UniProt O14763 56-210); test: SPR (BIACORE 2000), TRAIL-R2-hFc immobilised on CM5, bivalent model
T3 construct: extracellular domain; Bought (ALEXIS) or made with TRAIL-R2 amino acids 1 to 183 as the extracellular region; not shown: Fc region of human IgG1
Description: TRAIL-R1-hFc or TRAIL-R2-hFc was diluted at a final concentration of 10 μg/ml with 10 mM Acetic Acid (pH 4.0), and then immobilized on a sensor chip CM5 by the amine coupling method. The immobilization conditions are as follows. NHS activation and ethanolamine blocking were performed according to the methods described in the instructions. Coupling of TRAIL-R1-hFc and that of TRAIL-R2-hFc were performed by manual injection as described in the instructions.
Each antibody of the dilution series was added in order at a flow rate of 20 μl/minute by the KINJECT method (binding for 2 minutes and dissociation for 6 minutes), thereby obtaining a sensorgram. […] Each antibody of the dilution series was added in order at a flow rate of 20 μl/minute by the KINJECT method (binding for 2 minutes and dissociation for 2 minutes), thereby obtaining sensorgrams. For each antibody, kinetics analysis was performed using each sensorgram and BIAevaluation software ver3.2 (Biacore). As a fitting model, global fitting was performed using a Bivalent model, so that the binding rate constant and the dissociation rate constant were found. In addition, a dissociation constant (Kd value) was calculated from the two constants. Also, the sensorgrams were used for fitting after the subtraction of control cells and buffer correction. In the tables, “kass” indicates the binding rate constant, “kdiss” indicates the dissociation rate constant, and “KD” indicates the dissociation constant.

[6] = molecular target: T3, TRAIL-R2-hFc, fusion protein of the …; test: ELISA on a plate coated with TRAIL-R2-hFc, detection with HRP-labeled goat anti-human Ig kappa, absorbance at 450 nm (method of Example 18)
Description: 50 μl of the thus prepared solution was added to each well of a 96-well microplate for ELISA (Maxisorp, Nunc) and incubated for 1 hour at room temperature or at 4° C. overnight, thereby coating TRAIL-R1-hFc or TRAIL-R2-hFc to the microplate. […] Thus, a microplate having each well coated with TRAIL-R1-hFc or TRAIL-R2-hFc was prepared.
The culture supernatant of each hybridoma (50 μl) was added to each well, reaction was performed at room temperature for 1 hour, and then each well was washed three times in 0.1% Tween20-containing PBS (PBS-T). Subsequently, horseradish peroxidase-labeled goat anti-human Igκ antibodies (50 μl/well, Biosource International) were diluted 2000 times in PBS-T containing 10% Block Ace (Dainippon Pharmaceutical Co., Ltd.). 50 μl of the thus prepared solution was added to each well, and incubation was then performed at room temperature for 30 minutes; The microplate was washed three times with PBS-T, and then 50 μl of a TMB chromogenic substrate solution (DAKO) was added to each well, followed by incubation at room temperature for 20 minutes. 0.5M sulfuric acid was added (50 μl/well) to each well to stop reaction.
For the measurement of the binding activity, 96-well microplate for ELISA (Maxisorp, Nunc) to which TRAIL-R2-hFc was coated was used.

binding result [1]: no binding
B1: human anti-TRAIL-R2 monoclonal antibody H-48-2 (antibody, IgG1, V domains shown)
VH: QLQLQESGPGLVKPSETLSLTCTVSGGSISSSSYYWGWVRQPPGKGLEWIGSIHYSGSTFYNPSLKSRVTISVDTSKNQFSLKLSSVTAADTTVYYCARQGSTVVRGVYYYGMDVWGQGTTVTVSS
VL: not shown
notes: IgG1, human kappa light chain; Hybridoma FERM BP-7599; also called H-48-2-IgG1

EC50 (read off the curve) [6]: ~0.03 µg/mL
B4: recombinant 0304 antibody of which subclass is IgG1 (antibody, V domains shown)
VH: QVQLVQSGAEMKKPGASVKVSCKTSGYTFTNYKINWVRQAPGQGLEWMGWMNPDTDSTGYPQKFQGRVTMTRNTSISTAYMELSSLRSEDTAVYYCARSYGSGSYYRDYYYGMDVWGQGTTVTVSS
VL: EIVLTQSPATLSLSPGERATLSCRASQSVSSYLAWYQQKPGQAPRLLIYDASNRATGIPARFSGSGSGTDFTLTISSLEPEDFAVYYCQQRSNWPLTFGGGTKVEIK

EC50 (read off the curve) [6]: ~0.03 µg/mL
B5: recombinant 0304 antibody of which subclass is IgG4 (antibody, V domains shown)
VH: QVQLVQSGAEMKKPGASVKVSCKTSGYTFTNYKINWVRQAPGQGLEWMGWMNPDTDSTGYPQKFQGRVTMTRNTSISTAYMELSSLRSEDTAVYYCARSYGSGSYYRDYYYGMDVWGQGTTVTVSS
VL: EIVLTQSPATLSLSPGERATLSCRASQSVSSYLAWYQQKPGQAPRLLIYDASNRATGIPARFSGSGSGTDFTLTISSLEPEDFAVYYCQQRSNWPLTFGGGTKVEIK

The next lines start with the binder.

B2: human anti-TRAIL-R2 monoclonal antibody KMTR1 (antibody, IgG1, V domains shown)
VH: EVQLLESGGGLVQPGRSLRLSCAASGFTFSSYAMSWVRQAPGKGLEWVSAISGSGGSRYYADSVKGRFTISRDNSKNTLYLQMNSLRAEDTAVYYCAKESSGWFGAFDYWGQGTLVTVSS
VL: EIVLTQSPDFQSVTPKEKVTITCRASQSIGSSLHWYQQKPDQSPKLLIKYASQSFSGVPSRFSGSGSGTDFTLTINSLEAEDAAAYYCHQSSSLPITFGQGTRLEIK
notes: IgG1, human kappa light chain
LD50, Colo205 cells, 48 h, with goat anti-human IgG cross-linker [2]: 0.04 µg/mL | LD50, normal human hepatocytes, 24 h, with goat anti-human IgG cross-linker [2]: > 10 µg/mL | binding result [3]: binds

B3: human anti-TRAIL-R2 monoclonal antibody E-11-13 (antibody, IgG1, V domains shown)
VH: QLQLQESGPGLVKPSETLSLTCTVSGGSIISKSSYWGWIRQPPGKGLEWIGSIYYSGSTFYNPSLKSRVTISVDTSKNQFSLKLSSVTAADTAVYYCARLTVAEFDYWGQGTLVTVSS
VL: EIVLTQSPATLSLSPGERATLSCRASQSVSSFLAWYQQKPGQAPRLLIYDASNRATGIPARFSGSGSGTDFTLTISSLEPEDFAVYYCQQRSNWPLTFGPGTKVDIK
notes: Hybridoma FERM BP-7698 / BP-7770; also called E-11-3
LD50, Jurkat cells, 48 h [4]: 0.1 µg/mL | LD50, U251 cells, 48 h [4]: 0.3 µg/mL | LD50, Colo205 cells, 48 h, with goat anti-human IgG cross-linker [2]: 0.11 µg/mL | LD50, normal human hepatocytes, 24 h, with goat anti-human IgG cross-linker [2]: 2.8 µg/mL | Kd [5]: 0.0729 nM | koff [5]: 3.84e-05 s⁻¹ | kon [5]: 527000 M⁻¹ s⁻¹

B6: human anti-TRAIL-R2 monoclonal antibody 0304 (from the hybridoma) (antibody, IgG4, V domains shown)
VH: QVQLVQSGAEMKKPGASVKVSCKTSGYTFTNYKINWVRQAPGQGLEWMGWMNPDTDSTGYPQKFQGRVTMTRNTSISTAYMELSSLRSEDTAVYYCARSYGSGSYYRDYYYGMDVWGQGTTVTVSS
VL: EIVLTQSPATLSLSPGERATLSCRASQSVSSYLAWYQQKPGQAPRLLIYDASNRATGIPARFSGSGSGTDFTLTISSLEPEDFAVYYCQQRSNWPLTFGGGTKVEIK
notes: IgG4, human kappa light chain
LD50, Colo205 cells, 48 h, with goat anti-human IgG cross-linker [2]: 0.02 µg/mL | LD50, normal human hepatocytes, 24 h, with goat anti-human IgG cross-linker [2]: 0.002 µg/mL | binding result [3]: no binding

B7: human anti-TRAIL-R2 monoclonal antibody L-30-10 (antibody, IgG1, V domains shown)
VH: QLQLQESGPGLVKPSETLSLTCTVSGGSISSRSNYWGWIRQPPGKGLEWIGNVYYRGSTYYNSSLKSRVTISVDTSKNQFSLKLSSVTVADTAVYYCARLSVAEFDYWGQGILVTVSS
VL: EIVLTQSPATLSLSPGERATLSCRASQSVSSFLAWYQQKPGQAPRLLIYDASNRATGSPARFSGSGSGTDFTLTISSLEPEDFAVYYCQQRSDWPLTFGPGTKVDIK
notes: Hybridoma FERM BP-7700 / BP-7769
LD50, Jurkat cells, 48 h [4]: 0.13 µg/mL | LD50, U251 cells, 48 h [4]: 0.17 µg/mL | LD50, Colo205 cells, 48 h, with goat anti-human IgG cross-linker [2]: 0.1 µg/mL | LD50, normal human hepatocytes, 24 h, with goat anti-human IgG cross-linker [2]: 24 µg/mL | Kd [5]: 2.35 nM | koff [5]: 0.00144 s⁻¹ | kon [5]: 613000 M⁻¹ s⁻¹
